# Reference: patent publication US20230151095A1 (published 2023)
# Where a chain is given by its changes, count along the chain named.
# B1: XENP40552 (LB_1001, mAb-scFv VHVL) (antibody)
# chain 1: EVQLLESGGGLVQPGGSLRLSCAVSGFSLSSYGVIWVRQAPGKGLEYVSWVSSGGSTNYASSVKGRFTISRDTSKNTVYLQMNSLRAEDTAVYFCARGATNSGTDIWGPGTLVTVSSASTKGPSVFPLAPSSKSTSGGTAALGCLVKDYFPEPVTVSWNSGALTSGVHTFPAVLQSSGLYSLSSVVTVPSSSLGTQTYICNVNHKPSDTKVDKKVEPKSCDKTHTCPPCPAPELLGGPSVFLFPPKPKDTLMISRTPEVTCVVVDVSHEDPEVKFNWYVDGVEVHNAKTKPREEEYNSTYRVVSVLTVLHQDWLNGKEYKCKVSNKALPAPIEKTISKAKGQPREPQVYTLPPSREEMTKNQVSLTCDVSGFYPSDIAVEWESDGQPENNYKTTPPVLDSDGSFFLYSKLTVDKSRWEQGDVFSCSVMHEALHNHYTQKSLSLSPGK
# chain 2: not shown
# chain 3: DIVMTQSPSSLSASVGDRVTITCRASQSINSWLSWYQQKPGKPPKLLIYGASNLASGVPSRFKGSGSGTDFTLTISSLQPEDFATYYCQNNYGIIAAGATFGGGTKVEIKRTVAAPSVFIFPPSDEQLKSGTASVVCLLNNFYPREAKVQWKVDNALQSGNSQESVTEQDSKDSTYSLSSTLTLSKADYEKHKVYACEVTHQGLSSPVTKSFNRGEC
# B2: XENP40584 (LB_1001, 2+1 VHVL) (antibody)
# chain 1: B1 chain 1
# chain 2: not shown
# chain 3: B1 chain 3
# B3: XENP41337 (LB_1001, 2+1 VLVH) (antibody)
# chain 1: B1 chain 1
# chain 2: not shown
# chain 3: B1 chain 3
# B4: XENP41336 (1D7B4, 1+1 VLVH) (antibody)
# chain 1: B1 chain 1
# chain 2: not shown
# chain 3: B1 chain 3
# B5: XENP41334 (LB_1002, 1+1 VLVH) (antibody)
# chain 1: B1 chain 1
# chain 2: not shown
# chain 3: B1 chain 3
# B6: XENP40555 (1D2B4, mAb-scFv VHVL) (antibody)
# chain 1: B1 chain 1
# chain 2: not shown
# chain 3: B1 chain 3
# B7: XENP41341 (LB_1001, mAb-scFv VLVH) (antibody)
# chain 1: B1 chain 1
# chain 2: not shown
# chain 3: B1 chain 3
# B8: XENP41340 (1D7B4, 2+1 VLVH) (antibody)
# chain 1: B1 chain 1
# chain 2: not shown
# chain 3: B1 chain 3
# B9: XENP41335 (1D2B4, 1+1 VLVH) (antibody)
# chain 1: B1 chain 1
# chain 2: not shown
# chain 3: B1 chain 3
# B10: XENP40381 (LB_1001, 1+1 VHVL) (antibody)
# chain 1: B1 chain 1
# chain 2: not shown
# chain 3: B1 chain 3
# B11: XENP40590 (1D7B4, 2+1 VHVL) (antibody)
# chain 1: B1 chain 1
# chain 2: not shown
# chain 3: B1 chain 3
# B12: XENP41344 (1D7B4, mAb-scFv VLVH) (antibody)
# chain 1: B1 chain 1
# chain 2: not shown
# chain 3: B1 chain 3
# B13: XENP40587 (1D2B4, 2+1 VHVL) (antibody)
# chain 1: B1 chain 1
# chain 2: not shown
# chain 3: B1 chain 3
# B14: XENP40372 (1D2B4, 1+1 VHVL) (antibody)
# chain 1: B1 chain 1
# chain 2: not shown
# chain 3: B1 chain 3
# B15: XENP40558 (1D7B4, mAb-scFv VHVL) (antibody)
# chain 1: B1 chain 1
# chain 2: not shown
# chain 3: B1 chain 3
# B16: XENP41338 (LB_1002, 2+1 VLVH) (antibody)
# chain 1: B1 chain 1
# chain 2: EVQLLESGGGLVQPGGSLRLSCAVSGFSLSSYGVIWVRQAPGKGLEYVSWVSSGGSTNYASSVKGRFTISRDTSKNTVYLQMNSLRAEDTAVYFCARGATNSGTDIWGPGTLVTVSSASTKGPSVFPLAPSSKSTSGGTAALGCLVKDYFPEPVTVSWNSGALTSGVHTFPAVLQSSGLYSLSSVVTVPSSSLGTQTYICNVNHKPSNTKVDKKVEPKSCGGGGSGGGGSDIQMTQSPSSVSASVGDRVTITCRASQGISSWLAWYQQKPGKAPKLLIYAASSLQSGVPSRFSGSGSGTDFTLTISSLQPEDFATYYCQQGVSFPRTFGGGTKVEIKGKPGSGKPGSGKPGSGKPGSEVQLVESGGGLVKPGGSLRLSCAASGFTFSSYSMNWVRQAPGKGLEWVSSISSSSSYIYYADSVKGRFTISRDNAKNSLYLQMNSLRAEDTAVYYCARGAPMGAAAGWFDPWGQGTLVTVSSGGGGSGGGGSKTHTCPPCPAPELLGGPSVFLFPPKPKDTLMISRTPEVTCVVVDVSHEDPEVKFNWYVDGVEVHNAKTKPREEQYNSTYRVVSVLTVLHQDWLNGKEYKCKVSNKALPAPIEKTISKAKGQPREPQVYTLPPSREQMTKNQVKLTCLVKGFYPSDIAVEWESNGQPENNYKTTPPVLDSDGSFFLYSKLTVDKSRWQQGNVFSCSVMHEALHNHYTQKSLSLSPGK
# chain 3: B1 chain 3
# B17: XENP41333 (LB_1001, 1+1 VLVH) (antibody)
# chain 1: B1 chain 1
# chain 2: not shown
# chain 3: B1 chain 3
# B18: XENP40375 (1D7B4, 1+1 VHVL) (antibody)
# chain 1: B1 chain 1
# chain 2: not shown
# chain 3: B1 chain 3
# B19: XENP40457 (LB_1002, 1+1 VHVL) (antibody)
# chain 1: B1 chain 1
# chain 2: not shown
# chain 3: B1 chain 3
# B20: XENP41342 (LB_1002, mAb-scFv VLVH) (antibody)
# chain 1: B1 chain 1
# chain 2: not shown
# chain 3: B1 chain 3
# B21: XENP40891 (LB_1002, mAb-scFv VHVL) (antibody)
# chain 1: B1 chain 1
# chain 2: not shown
# chain 3: B1 chain 3
# B22: XENP41339 (1D2B4, 2+1 VLVH) (antibody)
# chain 1: B1 chain 1
# chain 2: not shown
# chain 3: B1 chain 3
# B23: XENP41022 (antibody)
# chain 1: B1 chain 1 with S239D, I332E
# chain 2: EVQLLESGGGLVQPGGSLRLSCAVSGFSLSSYGVIWVRQAPGKGLEYVSWVSSGGSTNYASSVKGRFTISRDTSKNTVYLQMNSLRAEDTAVYFCARGATNSGTDIWGPGTLVTVSSGKPGSGKPGSGKPGSGKPGSDIVMTQSPSSLSASVGDRVTITCRASQSINSWLSWYQQKPGKPPKLLIYGASNLASGVPSRFKGSGSGTDFTLTISSLQPEDFATYYCQNNYGIIAAGATFGGGTKVEIKEPKSSDKTHTCPPCPAPELLGGPDVFLFPPKPKDTLMISRTPEVTCVVVDVSHEDPEVKFNWYVDGVEVHNAKTKPREEQYNSTYRVVSVLTVLHQDWLNGKEYKCKVSNKALPAPEEKTISKAKGQPREPQVYTLPPSREQMTKNQVKLTCLVKGFYPSDIAVEWESNGQPENNYKTTPPVLDSDGSFFLYSKLTVDKSRWQQGNVFSCSVMHEALHNHYTQKSLSLSPGK
# chain 3: B1 chain 3
# B24: XENP41027 (antibody)
# chain 1: B1 chain 1
# chain 2: B23 chain 2 with D271S
# chain 3: B1 chain 3
# B25: XENP41028 (antibody)
# chain 1: B1 chain 1 with S239D, I332E
# chain 2: not shown
# chain 3: B1 chain 3
# B26: XENP41035 (antibody)
# chain 1: B1 chain 1 with S239D
# chain 2: B23 chain 2 with D271S
# chain 3: B1 chain 3
# B27: XENP41025 (antibody)
# chain 1: B1 chain 1
# chain 2: B23 chain 2
# chain 3: B1 chain 3
# B28: XENP41030 (antibody)
# chain 1: B1 chain 1 with I332E
# chain 2: not shown
# chain 3: B1 chain 3
# Molecular target: T1, XENP23311 (His-tagged NKG2D-Fc) (human, UniProt P26718 78-216)
# T1 chain: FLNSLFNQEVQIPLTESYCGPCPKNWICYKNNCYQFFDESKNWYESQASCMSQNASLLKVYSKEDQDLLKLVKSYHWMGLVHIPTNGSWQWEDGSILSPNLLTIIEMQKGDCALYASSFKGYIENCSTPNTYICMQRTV
# Test: Octet
row,Binder,Kd
1,B1,95.1 nM
2,B2,122 nM
3,B3,278 nM
4,B4,13.9 nM
5,B5,97.3 nM
6,B6,83.8 nM
7,B7,359 nM
8,B8,18.4 nM
9,B9,41.7 nM
10,B10,84.5 nM
11,B11,21.9 nM
12,B12,28.9 nM
13,B13,59.8 nM
14,B14,35.7 nM
15,B15,28.8 nM
16,B16,630 nM
17,B17,42 nM
18,B18,7.72 nM
19,B19,458 nM
20,B20,680 nM
21,B21,327 nM
22,B22,83.1 nM

# Molecular target: CD16 (UniProt P08637 17-208)
# Sequence (P08637 17-208): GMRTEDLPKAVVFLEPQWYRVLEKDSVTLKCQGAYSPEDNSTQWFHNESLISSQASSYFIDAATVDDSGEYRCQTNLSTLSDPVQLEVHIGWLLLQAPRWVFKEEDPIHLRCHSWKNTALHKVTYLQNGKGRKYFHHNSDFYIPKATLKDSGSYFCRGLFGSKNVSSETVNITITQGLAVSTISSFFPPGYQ
# Test: not given
row,Binder,Kd
1,B23,28.9 nM
2,B24,242 nM
3,B25,120 nM
4,B26,100 nM
5,B27,136 nM
6,B28,203 nM
